Experimental data as given in patent US20060294608A1.

Biological target: CHO derived N' FLAG-mNR6 (N-terminal FLAG-tagged murine NR6) (mouse) (UniProt Q9JM58)
Experiment: Biosensor (BiaCore) with M2 immobilised, after passage over M2 affinity resin

UniProt Q9JM58, sequence (Q9JM58 other isoform, or with tags, fused parts or gaps limits assumed): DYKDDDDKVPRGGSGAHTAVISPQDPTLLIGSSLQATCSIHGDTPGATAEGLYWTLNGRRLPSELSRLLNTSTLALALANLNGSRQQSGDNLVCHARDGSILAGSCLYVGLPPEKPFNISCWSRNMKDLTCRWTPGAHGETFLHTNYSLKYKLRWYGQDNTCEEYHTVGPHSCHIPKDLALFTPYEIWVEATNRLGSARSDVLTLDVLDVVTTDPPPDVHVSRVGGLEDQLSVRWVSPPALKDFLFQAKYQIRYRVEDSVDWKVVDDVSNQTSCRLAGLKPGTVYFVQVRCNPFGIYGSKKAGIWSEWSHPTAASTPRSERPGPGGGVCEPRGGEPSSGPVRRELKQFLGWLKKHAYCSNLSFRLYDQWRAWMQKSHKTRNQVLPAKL

“anti FLAG peptide M2 antibody (Kodak Eastman, USA)” was tested, and the M2 binding remaining in the unbound fraction was 20%.
